The results in this text go back to the DeepSol protein solubility set.

The nature of this data set: soluble on expression in E. coli; label from the status in PepcDB or PDB records.
Regarding “MTLMNTENEPTGMLTIRVSAMPKDANSAYDIFGGWVMAQMDMAAGIRSAERARGRTVTAAVREMAFARPVKIGDTLCVYTDITRVGRTSITLRVEAWAKRYLSDKRDLVTHAEFIMVALDADGKPTPAPQEDLEHHHHHH”, the “soluble on expression in E. coli” value was “not soluble”. With “MSRIGRIPVAIPKGVDVKLGDNNTLTVKGQKGTLTKQFHKDMIIKVEGDKIIVQRPSDEKKHKALHGLTRTLINNMVIGVTQGYEKALEINGVGYRAQKQGKKLILTLGYSHPVEMEEPQGITVEVPAPNKIVVKGADKQAVGEFAAKIRSKREPEVYKGKGIKYEDEVIRRKEGKAGGKGKK” the entry was “not soluble”; with “MSVIIRLKNLPMTAGASDVRTFFTGLKIPDGAVHIIGGDEGEVFVGFSSDDDARLAMTKDRLMIHGAEVRLFLSSKSEQNSVIAARKNNTYTSPVYKEYVPPVPSQPTPAQEQNWNSQTAGNPYAAKAGYEASYPPQNSNATRTSFNNQNSYSNRQEISQNHQENSVKLKDPFGGDYGGYKFQQQPPPQINRYGSGPPPSKPADLSNTRSLPPVNNPPPPHPIPQFPPEKQFGNKLGNNNDVSSRENHIQGSGNERVQGGDSWRDTSFNQPPRNDFKGNYNNAYSSNKYKNNYKAPEFNNDFNGGNKFNQFPPRNAQSTDLSENRAAPPQTGRKTLMPTPQAPFQNAPAPFTNGPSDDVNRPFQTGPPGNLGRNGPPPFQAGVPPPVIQNNMGRPIAPPAAMVRPPPQNFPGGAGGALPVFQAPVMTPIVPPVNKPMGAAAVEKFYIELTRLPTDLLRPAALEAFIHPTAPLTLSSVKTVFGPGGIHMHTIIRLDSIADYATMMRRNGEQGIKIQQSDKKSFDTAIDGIPIPSVSMVPSKEQRSHEDDDKKSRRSRWENTSPIRSPRRSPLRRDNRDRSRSRSPPRRRRRSRSPRRREEHTDPTRWCVQVTNVPFRMKDEELLEWFSEKVRPAKLTRTFYSDGNASDRWVAEFSSESLMKRSFGIRTLCTGRTLRLRYIDNAKADEILKIEDVYGEGKRQMNEEARLQHEVAEKANPPSFFNAPAATRGSGPMPPLNGTAPLPSGQQNGMNVPPPNGFNGAPMRGGFVPRGGNNFSQSRGGMMGRGGHGGGGGPQNFYQNGPNNFNNGPPEQQGQFRGNQGNDGGFRGGFRGGYRGRGGGRGGFQGGSRGDDSQPSQSELMELIKSIGPRGTVLSCNGFPKDVTLEDVVEFFNDYEPDRNSIRIRRGDDGVMTGECMLACQNQENARRASMDLDGQKLRNSVISVRII”, “not soluble”. With “LLAKEKYNGTESDDKYDPVEIVKWKIDREDGRKTLNSYINVLVLGLDDDEKRSDVIALINYNPDENKMNILSIARDTRVKVNGKYMKINALIGKGGEKMVIDMVEDITGLPVDYYVTLNFKGFREIVDTLGGVEINVPFDMDYDDPYQNLHIHLKKGKQVLDGKKAEQFVRYRKGNHNGEGYEDGDLGRIKMQQLFMREFVNQKLKLKYLLKADEIFYTLKKNMRTNIEIGDIRYFIKDIKNIKTPEINGYTLPGYSRYIGGQWFYIYDKKKTKELIEQNFYYSN” the entry was “soluble”; with “MKLHEAKLLLNDPTFSIDSITYQELEMDSDYVDVHEDISYSKDNVDLHSHTFFEILFCQSGSLQYMVGNTRYQLVKNSIVCIPPGVSHCPLYLEQLSEPYRRTVMWISNKIYHQYMNLLNNDPIEKSSCLLPQNVFLLSGNILYQVEELYEKMLNIPPDFSGAELYKIGLSAQIVTLFHQFLNSHEINPLKPEKTILLDEIIHFIENHLSEELSAKRIAAHFLVSESSINQLFSKQISLSLYRYITQRRLIEAKNLISSQTPLKKLPELCGFSDYSVFYKAFTKQYGISPKEYKNRIFKMQQ”, “soluble”. Next, “MFDFNDSMVSNAIIKVVGVGGGGGNAVQHMCEEVSDVEFFALNTDGQALSKSKVQNILQIGTNLTKGLGAGANPEIGKRAATEDRAKIEQLLEGADMVFITAGMGGGTGTGGAPVVAEVAKEMGILTVAVVTKPFPFEGPRRMKAAEQGIDELTKHVDSIITVPNEKLLSVLGKGASLIDAFNAANDVLGNAVKGVSELITKPGLINVDFADVRAVMTNMGLAMMGMGEASGENRAREAAEAAISSPLLEDINLDGAKGVIVNITAGMDMSIGEFEEVGEVIRSFISDEAIVIAGTVIDPDMSDSMKVTVVVTGIEKVAMKRGFGVEKTSSLQQSASSFSNKTSAPFLRKETEVVTGASNAPKTDSDDVNKSDIPSFLRRR”: “not soluble”; “MVVTRIAPSPTGDPHVGTAYIALFNYAWARRNGGRFIVRIEDTDRARYVPGAEERILAALKWLGLSYDEGPDVAAPTGPYRQSERLPLYQKYAEELLKRGWAYRAFETPEELEQIRKEKGGYDGRARNIPPEEAEERARRGEPHVIRLKVPRPGTTEVKDELRGVVVYDNQEIPDVVLLKSDGYPTYHLANVVDDHLMGVTDVIRAEEWLVSTPIHVLLYRAFGWEAPRFYHMPLLRNPDKTKISKRKSHTSLDWYKAEGFLPEALRNYLCLMGFSMPDGREIFTLEEFIQAFTWERVSLGGPVFDLEKLRWMNGKYIREVLSLEEVAERVKPFLREAGLSWESEAYLRRAVELMRPRFDTLKEFPEKARYLFTEDYPVSEKAQRKLEEGLPLLKELYPRLRAQEEWTEAALEALLRGFAAEKGVKLGQVAQPLRAALTGSLETPGLFEILALLGKERALRRLERALA”: “soluble”; “MFALIQRGQIYTDRAGYPVEITRSTEHSVFFRRMDGRTGRVRIGEFSSLFEHIDHLEYHKILAETEQEKHLKKLRAMQRK”: “not soluble”. Turning to “MSLLLEPSAAMIKEQKLYREMGLTDEEFARIEAILGRLPNYTETGIFAVMWSEHCSYKNSKPVLKKFPTDGPHVLQGPGEGAGIVDIGDGLAVAFKIESHNHPSAIEPYQGAATGVGGIIRDVFSMGARPIALLNSLRFGELTSPRVKYLFEQVVAGIAGYGNCVGIPTVGGEVQFDPAYEGNPLVNAMCVGIIRHEDIQRGVATGVGNTVMYVGAKTGRDGIHGATFASEELSEQSEAKRPAVQVGDPFMEKLLLEACLEAVKSDALVGIQDMGAAGLTSSSAEMASKGGFGIEMNLDLVPQREAGMTPYEMMLSESQERMLLVVKQGCEDEIAAIFAKYGLEAKAIGKVTDDKMLRLFFRGEVAAEIPVDALAKDAPVYHKPSAEPAYYREFQAMPPYIPHIEDYNQTLLGLLAQPTIASKEWVYDQYDYMVRTNTVVAPGSDAAVVRIRGTNKALALTTDCNSRYLYLDPETGGKIAVAEAARNVVCSGAKPLAITDCLNFGSPEKPEIFWQLEKAVDGMSEACRALGTPVVSGNVSLYNETNGEAVYPTPVVGMVGLIDDLSHITTQSFKQAGDLIYVIGEAKPEFGGSELQKWLEGRIFGKAPEIDLEVEASRQRQLLAAIRAGVVASAHDIAEGGLAVALAECVMGASGLGAKVTIGGDLVSELFSETQSRFVVSVKKEQKEAFEQLVEAKQIGEVTDDGAFVVNGEHGETLIHLSVAKMRNVWKGAIPCLLKSKD”, the “soluble on expression in E. coli” value was “not soluble”. Next, “AIAEKLSEWKKFRIDSDKNDWIEQVDISGAKSLYEKEAQDKPLRVLVLYGSLRQRSFTRCCAYEAARLLDHLGADVRVFDPTELPVKGQVEETHHKVQELRELALWSEAQFWCSPEMHGNVTGCFKNQIDWIPLSLGSVRPTQGRTLAICQVNGGSQSFNAVNTLRVLGRWMRMFTIPNQSSIPKAWQEFDEYNRMKPSPLRDRLVDVVEELVKFSLMLRDHSSFHCVCQKL”: “soluble”. Next, “MAVYANTSVQDFYEFWLEEVKKKSLSYNSYYSFKKTVQNYILPLYGRLSMGKLRKNHVKRIYKKTYETSPSVAKIVKTVLTTSFKYALRYGYVEEDYVTGLKWNRVILEHHHHHH”: “not soluble”; “MAHHHHHHMRSTPHGPPPHPRTSSVRQDAITYPYAYAAPGRQAPSAGYEHDDNTTAEAGPTRRCVPGRGNRAMPASNTGPYPSDVNRTLSYPEPAPARTAAPAVAIMQPSSPFEQDHTPVVYTVQNTTTDTHRHETEYGGVLTIRTTTVTRTITERLVASDEDDDSSENGEVYLDDARNEASVPSLHR”: “not soluble”; “ANGLFYSLRGNFSFARNKIIENDEPKPKYEYQDARGRRIDQTFGLVALGFFKDQDDIKNSPKQTFQSTVRPGDIKYKDINGDGVVDEYDKVAIGDPRTPEIMFGFGGTVAYKNFDVSLFFTGAAKTSFFLEGATVYPFLNGEGTWNVLREVYDNRWTSETAATAKYPIVLNANSYNNYQTSTMYMRNGSYLRLKSAEIGYTFKGRLIDKMFMDNIRLFCNGQNLLTLDYIKIVDPESNNGVGNYPMQRTINFGFQINFK”: “not soluble”.
